The values below come from article PMC9697831 (2022).

No end group written: not given here. enterokinase site = enterokinase site: N-terminal 6xHis-tag carrying an enterokinase cleavage site; factor Xa site = factor Xa site: N-terminal 6xHis-tag carrying a factor Xa cleavage site

For this assay, the target named is Kv1.3 (Homo sapiens, UniProt P22001). Nature of the assay: whole-cell patch clamp. Background: The patch-clamp technique gives a direct electrical read-out from membranes.
Sequence of Kv1.3 (P22001 whole entry): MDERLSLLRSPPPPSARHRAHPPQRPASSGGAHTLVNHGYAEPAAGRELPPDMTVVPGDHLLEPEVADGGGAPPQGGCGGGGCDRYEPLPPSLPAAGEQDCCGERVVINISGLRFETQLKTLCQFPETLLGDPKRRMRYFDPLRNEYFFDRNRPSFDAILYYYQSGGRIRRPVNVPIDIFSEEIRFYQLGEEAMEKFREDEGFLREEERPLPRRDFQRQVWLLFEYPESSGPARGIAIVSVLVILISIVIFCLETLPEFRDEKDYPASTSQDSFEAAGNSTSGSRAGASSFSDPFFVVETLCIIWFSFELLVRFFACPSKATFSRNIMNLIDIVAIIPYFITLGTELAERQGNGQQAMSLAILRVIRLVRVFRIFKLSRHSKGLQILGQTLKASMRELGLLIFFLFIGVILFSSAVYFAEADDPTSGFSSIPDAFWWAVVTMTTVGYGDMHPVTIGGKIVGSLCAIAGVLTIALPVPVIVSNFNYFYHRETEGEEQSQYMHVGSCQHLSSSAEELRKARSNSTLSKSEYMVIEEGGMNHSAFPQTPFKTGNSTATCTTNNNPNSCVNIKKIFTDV
On to {6xHis tag-factor Xa site}-AAAISCVGSPECPPKCRAQGCKNGKCMNRKCECYYC (disulfide (positions not given here); ends not checked) [Vm24 (Tag-Vm24)], for which the Kd (commonly the equilibrium constant for the complex coming apart) stood at 0.0044 nM. In turn, {6xHis tag-enterokinase site}-WCSTCLDLACGASRECYDPCFKAFGRAHGKCMNNKCRCYT (disulfide (positions not given here); ends not checked) [Ts6 (Tag-Ts6)] had a Kd of 887 nM. Turning to WCSTCLDLACGASRECYDPCFKAFGRAHGKCMNNKCRCYT [Ts6 (Untag-Ts6)], the Kd was found to be 29.1 nM. On to QKECTGPQHCTNFCRKNKCTHGKCMNRKCKCFNCK [Anuroctoxin (Untag-AnTx)], for which the Kd is 0.72 nM. QKECTGPQHCTNFCRKNKCTHGKCMNRKCKCFNCK (N-terminal 6xHis-tag with enterokinase site) [Anuroctoxin (Tag-AnTx)] returned a dissociation constant Kd of 1.29 nM.
